Measured values taken from patent US20180319880A1 (Eli Lilly, published 2018).
Substitutions are numbered along the chain they refer to.

Columns and labels:
human IL-12 = molecular target: T1, human IL-12 (human, UniProt P29459 23-219; P29460 23-328); experiment: SPR (BIAcore 2000), antibody captured on Protein A
T1 sequence (looked up) 1: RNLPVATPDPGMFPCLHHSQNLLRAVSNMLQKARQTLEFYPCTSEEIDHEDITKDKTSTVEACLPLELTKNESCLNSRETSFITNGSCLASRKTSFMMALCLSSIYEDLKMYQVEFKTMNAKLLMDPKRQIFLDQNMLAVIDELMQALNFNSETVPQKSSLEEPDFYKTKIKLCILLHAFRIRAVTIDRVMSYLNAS
T1 sequence (looked up) 2: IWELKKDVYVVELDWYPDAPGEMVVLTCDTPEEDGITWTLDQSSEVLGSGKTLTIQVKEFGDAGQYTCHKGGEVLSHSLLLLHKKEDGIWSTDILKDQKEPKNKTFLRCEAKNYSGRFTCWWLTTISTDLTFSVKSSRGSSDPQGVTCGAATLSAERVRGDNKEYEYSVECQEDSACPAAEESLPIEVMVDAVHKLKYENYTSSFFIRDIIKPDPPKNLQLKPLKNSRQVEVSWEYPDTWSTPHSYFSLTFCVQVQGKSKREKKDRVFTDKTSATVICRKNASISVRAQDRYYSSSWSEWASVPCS

human IL-27 = molecular target: T2, human IL-27 (human, UniProt Q8NEV9 29-243; Q14213 21-229); experiment: SPR (BIAcore 2000), antibody captured on Protein A
T2 sequence (looked up) 1: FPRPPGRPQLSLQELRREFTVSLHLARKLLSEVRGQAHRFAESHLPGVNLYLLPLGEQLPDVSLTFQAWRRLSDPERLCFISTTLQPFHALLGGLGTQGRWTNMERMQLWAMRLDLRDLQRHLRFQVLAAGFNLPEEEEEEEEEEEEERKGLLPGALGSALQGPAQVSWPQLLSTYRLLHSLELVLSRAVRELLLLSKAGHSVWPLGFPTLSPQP
T2 sequence (looked up) 2: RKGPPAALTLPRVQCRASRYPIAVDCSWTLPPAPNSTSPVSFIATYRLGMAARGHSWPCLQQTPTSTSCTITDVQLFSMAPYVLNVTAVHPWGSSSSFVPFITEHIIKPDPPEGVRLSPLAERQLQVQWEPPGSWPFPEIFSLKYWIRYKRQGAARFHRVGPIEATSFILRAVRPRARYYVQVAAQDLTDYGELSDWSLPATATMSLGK

human IL-35 = molecular target: T3, human IL-35 (human, UniProt P29459 23-219; Q14213 21-229); experiment: SPR (BIAcore 2000), antibody captured on Protein A
T3 sequence (looked up) 1: T1 sequence (looked up) 1
T3 sequence (looked up) 2: T2 sequence (looked up) 2

[1] = molecular target: T4, human CGRP (human/cynomolgus monkey CGRP) (human, not fully specified); experiment: SPR (BIAcore 3000), antibody captured on Protein A, after CGRP injections, 25 C
T4 construct: also called human Calcitonin Gene Related Peptide; human CGRP peptide (Bachem H-1470)
T4 peptide: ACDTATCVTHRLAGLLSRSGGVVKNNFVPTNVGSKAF

rabbit IL-23 = molecular target: T5, rabbit IL-23 (rabbit, UniProt G1SSM0 20-191); experiment: SPR (Biacore T200), antibody captured on Protein A, IL-23 as analyte, 37 C, n=1
T5 construct: not shown: The rabbit p40 subunit (IL-12B) of the heterodimer; Any tag or linker of the reagent is also unstated
T5 sequence (p19): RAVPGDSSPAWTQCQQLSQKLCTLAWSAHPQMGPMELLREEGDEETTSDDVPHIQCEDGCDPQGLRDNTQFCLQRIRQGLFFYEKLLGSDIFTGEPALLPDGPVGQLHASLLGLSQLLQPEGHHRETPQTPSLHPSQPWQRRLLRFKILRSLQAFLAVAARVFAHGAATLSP
Procedure: Affinity and kinetics of Bispecific Antibody 1 to human, cynomolgus monkey, mouse, rat, and rabbit IL-23 are measured using a Biacore T200 instrument (BIAcore® AB, Upsala, Sweden). Briefly, a protein-A coupled CM5 chip is generated using standard amine-coupling protocols. Bispecific Antibody 1 is diluted to 1 μg/mL in running buffer, and approximately 100 RU is captured to the chip surface. A concentration series of each ligand is injected over all flow cells at 100 μL/minute for 180 seconds followed by a 900 second dissociation phase followed by chip regeneration. Data is analyzed in Biacore T200 Evaluation Software Version 1.0 by flow-cell 1 reference subtraction along with 0 nM blank subtraction. Human, cynomolgus monkey, and rabbit IL-23 data are fit globally using a “1:1 (Langmuir) Binding” binding model to determine the on-rate (kₒₙ) and off-rate (koff) for each ligand. The affinity (KD) is calculated from the binding kinetics according to the relationship KD=koff/kₒₙ. Mouse IL-23 binding data is fit using a “Steady State Affinity” binding model to determine affinity (KD). Stoichiometry of binding is calculated according to the relationship: Stoichiometry of binding is calculated according to the relationship: Stoichiometry=[RUₘₐₓ/RU_{Bispecific Antibody 1}]/[MWantigen/MW_{Bispecific Antibody 1}] where MWantigen is the molecular weight of human IL-23 and MW_{Bispecific Antibody 1} is 150 kDa.

mouse/rat CGRP = molecular target: T6, mouse/rat CGRP (mouse/rat, UniProt P01256 83-119 (rat entry)); experiment: SPR (Biacore T100 or T200), antibody captured on Protein A, CGRP as analyte, 37 C, n=1
T6 construct: also used as the target of the rat dermal blood flow assay (endogenous rat CGRP)
T6 peptide (looked up): T4 peptide with A1S, D3N, N25D, K35E
Procedure: (§1) Affinity and kinetics of Bispecific Antibody 1 to human/cynomolgus monkey, mouse/rat, and rabbit CGRP are measured using a Biacore T100 or T200 instrument (BIAcore® AB, Upsala, Sweden). Briefly, a protein-A coupled CM5 chip is generated using standard amine-coupling protocols. […] A concentration series of each ligand is injected over all flow cells at 70-100 μL/minute for 180 seconds followed by a 1500-1800 second dissociation phase followed by chip regeneration.
(§2) Data is analyzed by flow-cell 1 reference subtraction along with 0 nM blank subtraction. The on-rate (kₒₙ) and off-rate (koff) for each ligand are fit globally using a “1:1 (Langmuir) Binding” binding model. The affinity (KD) is calculated from the binding kinetics according to the relationship KD=koff/kₒₙ. Stoichiometry of binding is calculated according to the relationship: Stoichiometry=[RUₘₐₓ/RU_{Bispecific Antibody 1}]/[MWantigen/MW_{Bispecific Antibody 1}] where MWantigen is the molecular weight of human CGRP and MW_{Bispecific Antibody 1} is 150 kDa.

rabbit CGRP = rabbit CGRP (rabbit); experiment: as above
Procedure: as §1, §2

[2] = molecular target: T4, human CGRP (human/cynomolgus monkey …); experiment: SPR (Biacore T100 or T200), antibody captured on Protein A, CGRP as analyte, 37 C, n=3
Procedure: as §1, §2

mouse IL-23 = molecular target: T7, mouse IL-23 (mouse, UniProt Q9EQ14 22-196; P43432 23-335); experiment: SPR (Biacore T200), antibody captured on Protein A, steady-state affinity model, 37 C, n=2
T7 sequence (looked up) 1: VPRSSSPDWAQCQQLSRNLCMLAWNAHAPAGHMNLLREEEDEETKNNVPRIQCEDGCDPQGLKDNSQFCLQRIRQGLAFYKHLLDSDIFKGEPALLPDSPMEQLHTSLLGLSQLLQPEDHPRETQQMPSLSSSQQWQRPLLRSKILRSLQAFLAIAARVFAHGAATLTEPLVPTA
T7 sequence (looked up) 2: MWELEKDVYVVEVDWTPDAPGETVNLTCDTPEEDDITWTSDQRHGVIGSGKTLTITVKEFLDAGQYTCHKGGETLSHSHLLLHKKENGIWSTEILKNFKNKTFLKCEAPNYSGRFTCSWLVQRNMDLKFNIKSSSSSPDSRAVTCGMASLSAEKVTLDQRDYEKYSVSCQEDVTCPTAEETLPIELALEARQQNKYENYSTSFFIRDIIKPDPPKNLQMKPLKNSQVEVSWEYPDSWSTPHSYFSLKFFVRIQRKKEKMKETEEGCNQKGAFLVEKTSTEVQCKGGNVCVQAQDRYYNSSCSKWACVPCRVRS
Procedure: Affinity and kinetics of Bispecific Antibody 1 to human, cynomolgus monkey, mouse, rat, and rabbit IL-23 are measured using a Biacore T200 instrument (BIAcore® AB, Upsala, Sweden). Briefly, a protein-A coupled CM5 chip is generated using standard amine-coupling protocols. Bispecific Antibody 1 is diluted to 1 μg/mL in running buffer, and approximately 100 RU is captured to the chip surface. A concentration series of each ligand is injected over all flow cells at 100 μL/minute for 180 seconds followed by a 900 second dissociation phase followed by chip regeneration. Data is analyzed in Biacore T200 Evaluation Software Version 1.0 by flow-cell 1 reference subtraction along with 0 nM blank subtraction. Human, cynomolgus monkey, and rabbit IL-23 data are fit globally using a “1:1 (Langmuir) Binding” binding model to determine the on-rate (kₒₙ) and off-rate (koff) for each ligand. The affinity (KD) is calculated from the binding kinetics according to the relationship KD=koff/kₒₙ. […] Stoichiometry of binding is calculated according to the relationship: Stoichiometry of binding is calculated according to the relationship: Stoichiometry=[RUₘₐₓ/RU_{Bispecific Antibody 1}]/[MWantigen/MW_{Bispecific Antibody 1}] where MWantigen is the molecular weight of human IL-23 and MW_{Bispecific Antibody 1} is 150 kDa. […]

B1: Bispecific Antibody 1 (bispecific antibody, human IgG1, kappa, lambda, L234A L235A)
heavy 1: QVQLVQSGAEVKKPGSSVKVSCKASGYTFGNYWMQWVRYAPGQGLEWMGAIYEGTGKTVYIQKFADRVTITADKSTSTAYMELSSLRSEDTAVYYCARLSDYVSGFGYWGRGTTVTVSSASTKGPSVFPLAPCSKSTSGGTAALGCLVKDYFPEPVTVSWNSGALTSGVHTFPAVLQSSGLYSLSSVVTVPSSSLGTQTYICNVNHKPSNTKVDKKVEPDSGDKTHTCPPCPAPEAAGGPSVFLFPPKPKDTLMISRTPEVTCVVVDVSHEDPEVKFNWYVDGVEVHNAKTKPREEQYNSTYRVVSVLTVLHQDWLNGKEYKCKVSNKALPAPIEKTISKAKGQPREPQVYTLPPSRGDMTKNQVQLTCLVKGFYPSDIAVEWESNGQPENNYKTTPPVLDSDGSFFLASKLTVDKSRWQQGNVFSCSVMHEALHNHYTQKSLSLSPG
light 1: DIQMTQSPSSLSASVGDRVTITCRASKDISKYLNWYQRKPGDAPKLLIYYTSGYHSGVPSRFSGSGSGTDFTLTISSLQPEDFATYYCQQGDALPPTFGGGTKVEIKRTVAAPSVFIFPPSKEQLKSGTASVVCLLNNFYPREAKVQWKVDNALQSGNSQESVTEQDSKDSTYSLSSTLTLSKADYEKHKVYACEVTHQGLSSPVTKSFNRGEC
heavy 2: QVQLVQSGAEVKKPGSSVKVSCKASGYPFTRYVMHWVRKAPGQGLEWMGYINPYNDGVNYNEEFKGRVTITADESTSTAYMELSSLRSEDTAVYYCARNWDTGLWGQGTTVTVSSASTKGPSVFPLAPSSKSTSGGTAALGCLVKDYFPEPVTVSWNSGALTSGVATGPAVLQSSGLYSLSSVVTVPSSSLGTQTYICNVNHKPSNTKVDKKVEPKSCDKTHTCPPCPAPEAAGGPSVFLFPPKPKDTLMISRTPEVTCVVVDVSHEDPEVKFNWYVDGVEVHNAKTKPREEQYNSTYRVVSVLTVLHQDWLNGKEYKCKVSNKALPAPIEKTISKAKGQPREPQVSTLPPSREEMTKNQVSLMCLVYGFYPSDIAVEWESNGQPENNYKTTPPVLDSDGSFFLYSVLTVDKSRWQQGNVFSCSVMHEALHNHYTQKSLSLSPG
light 2: RIQMTQSPSSLSASVGDRVTITCKASDHIGKFLTWYQDKPGKAPKLLIYGATSKLTGVPSRFSGSGSGTDFTLTISSLQPEDFATYYCQQYWSTPFTFGGGTKVEIKGQPKAAPSVTLFPPSSEELQANKATLVCYISDFYPGAVTVAWKADSSPVKAGVETTTPSKQSNNKYAAWSYLSLTPEQWKSHRSYSCQVTHEGSTVEKTVAPTEC
notes: Heterodimeric IgG1 with one arm for CGRP and one arm for the p19 subunit of IL-23; also called exemplified bispecific antibody; anti-CGRP/anti-IL-23 IgG bispecific antibody
B1: no binding (tested: 400 nM) (human IL-12); no binding (tested: 400 nM) (human IL-27); no binding (tested: 400 nM) (human IL-35). The “stoichiometry of human CGRP-to-Bispecific Antibody 1” value [1] was 0.8, the Kd (rabbit IL-23) was 1020 nM and the Stoichiometry (rabbit IL-23) was 1. The koff (rabbit IL-23) was 0.018 s⁻¹, the kon (rabbit IL-23) was 17000 M⁻¹ s⁻¹ and the Kd (mouse/rat CGRP) was 0.169 nM. It also gave a Stoichiometry (mouse/rat CGRP) of 0.8, a koff (mouse/rat CGRP) of 0.00097 s⁻¹ and a kon (mouse/rat CGRP) of 5.7e+06 M⁻¹ s⁻¹. The Kd (rabbit CGRP) was 0.021 nM, the Stoichiometry (rabbit CGRP) was 0.9 and the koff (rabbit CGRP) was 0.00047 s⁻¹. It also gave a kon (rabbit CGRP) of 2.3e+07 M⁻¹ s⁻¹, a Kd [2] of 0.0071 nM and a Stoichiometry [2] of 1. The koff [2] was 7.2e-05 s⁻¹, the kon [2] was 1.5e+07 M⁻¹ s⁻¹ and the Kd (mouse IL-23) was over 100 nM.
